Earlier results, collected in patent publication US20200031943A1 (priority 2017, published 2020).
Where two headings read alike, the source gives them in different places.

Conditions: for percentage of patients reported as developing influenza / upper respiratory infections (percentage of patients): SLE patients; for percentage of patients reported as developing influenza: placebo 2.0%; for upper respiratory infections (percentage of patients): placebo 28.7%
[1] = 300 mg intravenous every 4 weeks for 48 weeks
[2] = 1,000 mg intravenous every 4 weeks for 48 weeks

## anifrolumab
[1]
  percentage of patients reported as developing influenza: 6.1%
  upper respiratory infections (percentage of patients): 36.4%
300 mg or 1,000 mg intravenous every 4 weeks for 48 weeks vs placebo
  incidence of serious adverse events: did not increase the incidence of serious adverse events
[2]
  percentage of patients reported as developing influenza: 7.6%
  upper respiratory infections (percentage of patients): 41.9%
anifrolumab-treatment group vs placebo
  frequency of herpes zoster and influenza infections: slightly more frequent
